From PMC9687312 come the findings set out here.

For experiment [1], the target named is MGL Biot-ECD (biotinylated extracellular domain of MGL) (UniProt Q8IUN9). Nature of the experiment: SPR. On the technique in general: SPR reads the build-up and loss of mass on a sensor chip optically.
Experiment [2] concerns the target DC-SIGN Biot-ECD (biotinylated extracellular domain of DC-SIGN) (UniProt Q9NNX6). Nature of the experiment: SPR.
UniProt Q9NNX6, sequence (Q9NNX6 59-404): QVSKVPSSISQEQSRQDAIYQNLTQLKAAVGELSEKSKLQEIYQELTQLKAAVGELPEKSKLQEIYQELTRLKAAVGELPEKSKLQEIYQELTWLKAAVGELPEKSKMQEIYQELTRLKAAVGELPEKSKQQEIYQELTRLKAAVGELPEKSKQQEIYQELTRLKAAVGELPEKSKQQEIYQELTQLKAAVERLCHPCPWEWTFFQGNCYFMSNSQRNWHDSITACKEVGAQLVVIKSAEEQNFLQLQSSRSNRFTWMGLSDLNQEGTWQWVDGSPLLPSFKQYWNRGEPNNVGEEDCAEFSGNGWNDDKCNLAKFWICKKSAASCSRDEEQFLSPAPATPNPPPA

UniProt Q8IUN9, sequence (Q8IUN9 61-316): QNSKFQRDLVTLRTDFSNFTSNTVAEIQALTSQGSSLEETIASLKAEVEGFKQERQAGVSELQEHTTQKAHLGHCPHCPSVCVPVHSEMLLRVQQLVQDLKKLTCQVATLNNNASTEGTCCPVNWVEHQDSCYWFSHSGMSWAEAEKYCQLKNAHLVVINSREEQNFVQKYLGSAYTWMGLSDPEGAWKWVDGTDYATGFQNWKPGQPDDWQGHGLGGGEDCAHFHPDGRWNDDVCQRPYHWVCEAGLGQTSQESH

Take “Spike Receptor Binding Domain of SARS-CoV-2 fused to the SpyCatcher (RBD-SC) (from UniProt P0DTC2 320-554)”: the values for the Kd in experiment [1] and in experiment [2] were 0.982 µM and 0.601 µM, respectively.
